Measurements: paper PMC4164012

Target: T1, recombinant E. coli L-asparaginase II (E. coli K-12 (JM109)), P00805
T1 chain: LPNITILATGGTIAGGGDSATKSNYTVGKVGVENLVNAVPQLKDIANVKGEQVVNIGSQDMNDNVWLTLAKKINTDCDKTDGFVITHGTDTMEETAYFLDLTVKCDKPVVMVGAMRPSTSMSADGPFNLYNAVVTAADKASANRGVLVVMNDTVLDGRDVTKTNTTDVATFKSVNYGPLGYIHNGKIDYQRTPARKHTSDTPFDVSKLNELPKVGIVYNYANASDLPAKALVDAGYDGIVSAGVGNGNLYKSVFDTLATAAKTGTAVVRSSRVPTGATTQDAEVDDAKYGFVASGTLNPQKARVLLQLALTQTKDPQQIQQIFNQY
Experiment: SEC; analytical HPLC gel filtration on Bio-Sep S-2000, 50 mM Tris-HCl, 10 mM NaCl, pH 7.5; 20 ul of 1.5 mg/ml injected, 1 ml/min; mass from calibration with marker proteins
Details: remark: other sources report otherwise

- stoichiometry N: 4
B1: recombinant E. coli L-asparaginase II, P00805 23-348 (enzyme)
chain: T1 chain
